Assay in all cases: ELISA; thermolysin coated on microtiter plates (100 ul; 10 ug/ml, 16 h, 4 C), blocked with 3% BSA in PBS; C6, C7, C8 or C9 added (100 ul; 0-5 ug/ml) for 1 h at 37 C; detected with goat polyclonal antibodies, absorbance at 492 nm; Kd by non-linear regression Y = Bmax*X/(Kd + X); for C6 also with a fixed amount (1 ug) in 0-600 mM NaCl (reduced only at 600 mM) or 0.05-1 ug heparin (dose-dependent inhibition)
Conditions in all cases: both partners purified

The target of experiment [1] is T1, Complement component C6, purified from human plasma (human, UniProt P13671 22-934).
T1 construct: human complement component C6, single polypeptide chain (~100 kDa), purified from plasma; source: bought: Complement Technology (purified from human plasma)

The target in experiment [2] is T2, Complement component C7, purified from human plasma (human, UniProt P10643 23-843).
T2 construct: human complement component C7, 95 kDa single chain, purified from plasma; source: bought: Complement Technology (purified from human plasma)

Experiment [3] addresses T3, Complement component C8, purified from human plasma (human, UniProt P07357 31-584; P07358 55-591; P07360 21-202).
T3 construct: human complement component C8 alpha chain (~64 kDa), purified from plasma as intact C8; human complement component C8 beta chain (~64 kDa), purified from plasma as intact C8; human complement component C8 gamma chain (~22 kDa), purified from plasma as intact C8; Intact C8 of three polypeptide chains (alpha, beta, gamma); source: bought: Complement Technology (purified from human plasma); copies: …

The target in experiment [4] is T4, Complement component C9, purified from human plasma (human, UniProt P02748 22-559).
T4 construct: human complement component C9, single 71 kDa polypeptide chain, purified from plasma; source: bought: Complement Technology (purified from human plasma)

Kd data for one molecule are collected here from paper PMC5447677, “Pathogenic Leptospira Secreted Proteases Target the Membrane Attack Complex: A Potential Role for Thermolysin in Complement Inhibition” (Frontiers in Microbiology, 2017).

T3 sequence (P07357 31-584, chain 1 of 3): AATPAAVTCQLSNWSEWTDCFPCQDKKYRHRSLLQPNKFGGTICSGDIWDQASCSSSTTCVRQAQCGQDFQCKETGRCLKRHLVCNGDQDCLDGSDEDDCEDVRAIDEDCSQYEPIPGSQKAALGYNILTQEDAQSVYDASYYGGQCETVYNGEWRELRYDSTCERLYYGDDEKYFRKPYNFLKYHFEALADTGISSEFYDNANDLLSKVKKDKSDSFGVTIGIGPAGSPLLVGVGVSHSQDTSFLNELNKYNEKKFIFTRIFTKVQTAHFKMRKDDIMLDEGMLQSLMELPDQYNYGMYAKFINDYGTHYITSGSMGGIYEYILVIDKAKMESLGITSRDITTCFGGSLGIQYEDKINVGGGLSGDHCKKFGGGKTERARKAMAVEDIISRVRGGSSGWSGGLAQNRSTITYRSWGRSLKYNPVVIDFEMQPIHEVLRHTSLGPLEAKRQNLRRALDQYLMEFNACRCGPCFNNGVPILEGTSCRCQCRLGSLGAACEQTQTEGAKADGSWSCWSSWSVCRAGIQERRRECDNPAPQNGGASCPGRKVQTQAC
T3 sequence (P07358 55-591, chain 2 of 3): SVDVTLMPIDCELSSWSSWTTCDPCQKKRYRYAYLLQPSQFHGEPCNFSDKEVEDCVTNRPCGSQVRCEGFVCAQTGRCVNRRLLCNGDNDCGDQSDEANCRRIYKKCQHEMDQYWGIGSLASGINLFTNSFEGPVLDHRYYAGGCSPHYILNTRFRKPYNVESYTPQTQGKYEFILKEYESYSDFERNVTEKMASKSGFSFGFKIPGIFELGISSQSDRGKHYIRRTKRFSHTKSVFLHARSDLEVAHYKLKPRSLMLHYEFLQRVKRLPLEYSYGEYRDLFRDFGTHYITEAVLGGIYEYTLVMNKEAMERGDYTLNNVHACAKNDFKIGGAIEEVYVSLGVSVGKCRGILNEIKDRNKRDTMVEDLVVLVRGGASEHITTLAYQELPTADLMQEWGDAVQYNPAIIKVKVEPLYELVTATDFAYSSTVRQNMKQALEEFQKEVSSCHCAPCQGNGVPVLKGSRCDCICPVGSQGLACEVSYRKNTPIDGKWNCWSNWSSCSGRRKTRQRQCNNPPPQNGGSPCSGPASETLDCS
T3 sequence (P07360 21-202, chain 3 of 3): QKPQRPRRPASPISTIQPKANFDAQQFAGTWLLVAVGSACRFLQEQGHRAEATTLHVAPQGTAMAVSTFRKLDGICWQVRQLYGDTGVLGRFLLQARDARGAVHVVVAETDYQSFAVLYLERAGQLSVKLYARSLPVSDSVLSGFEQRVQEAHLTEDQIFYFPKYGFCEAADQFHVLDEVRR
T4 sequence (P02748 22-559): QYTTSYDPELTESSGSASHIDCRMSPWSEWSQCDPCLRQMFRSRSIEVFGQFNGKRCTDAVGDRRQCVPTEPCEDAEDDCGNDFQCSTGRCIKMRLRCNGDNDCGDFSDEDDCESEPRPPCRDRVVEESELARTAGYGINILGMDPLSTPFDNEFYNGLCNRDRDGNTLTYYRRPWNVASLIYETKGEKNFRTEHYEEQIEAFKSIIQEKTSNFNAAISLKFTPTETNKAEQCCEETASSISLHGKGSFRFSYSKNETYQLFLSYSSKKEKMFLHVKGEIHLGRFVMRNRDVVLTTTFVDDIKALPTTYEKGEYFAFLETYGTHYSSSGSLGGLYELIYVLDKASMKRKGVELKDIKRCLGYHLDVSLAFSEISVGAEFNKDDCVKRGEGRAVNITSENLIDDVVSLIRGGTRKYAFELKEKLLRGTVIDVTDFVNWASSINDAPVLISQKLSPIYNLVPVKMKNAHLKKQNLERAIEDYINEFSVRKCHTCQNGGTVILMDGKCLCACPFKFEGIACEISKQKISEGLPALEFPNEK
T2 sequence (P10643 23-843): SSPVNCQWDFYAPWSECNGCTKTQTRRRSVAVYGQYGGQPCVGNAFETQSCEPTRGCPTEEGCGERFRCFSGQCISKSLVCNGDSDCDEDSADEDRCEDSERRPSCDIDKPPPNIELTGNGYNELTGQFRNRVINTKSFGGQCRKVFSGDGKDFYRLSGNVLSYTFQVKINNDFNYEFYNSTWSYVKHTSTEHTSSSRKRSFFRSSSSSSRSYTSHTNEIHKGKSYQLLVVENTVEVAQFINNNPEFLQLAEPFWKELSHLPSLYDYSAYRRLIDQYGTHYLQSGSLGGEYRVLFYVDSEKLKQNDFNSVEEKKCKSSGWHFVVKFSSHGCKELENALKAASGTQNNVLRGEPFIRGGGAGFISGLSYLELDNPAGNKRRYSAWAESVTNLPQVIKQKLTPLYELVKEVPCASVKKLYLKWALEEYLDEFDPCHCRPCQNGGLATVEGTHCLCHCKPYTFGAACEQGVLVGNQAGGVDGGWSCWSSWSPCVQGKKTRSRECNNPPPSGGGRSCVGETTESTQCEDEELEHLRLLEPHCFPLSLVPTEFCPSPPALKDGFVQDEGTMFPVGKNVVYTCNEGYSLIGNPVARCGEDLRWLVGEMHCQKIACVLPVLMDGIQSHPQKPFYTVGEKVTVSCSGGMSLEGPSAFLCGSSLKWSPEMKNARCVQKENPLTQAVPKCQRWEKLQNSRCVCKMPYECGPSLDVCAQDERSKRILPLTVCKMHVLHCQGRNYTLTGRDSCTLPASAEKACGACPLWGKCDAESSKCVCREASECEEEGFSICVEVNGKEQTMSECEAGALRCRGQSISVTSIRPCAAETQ
T1 sequence (P13671 22-934): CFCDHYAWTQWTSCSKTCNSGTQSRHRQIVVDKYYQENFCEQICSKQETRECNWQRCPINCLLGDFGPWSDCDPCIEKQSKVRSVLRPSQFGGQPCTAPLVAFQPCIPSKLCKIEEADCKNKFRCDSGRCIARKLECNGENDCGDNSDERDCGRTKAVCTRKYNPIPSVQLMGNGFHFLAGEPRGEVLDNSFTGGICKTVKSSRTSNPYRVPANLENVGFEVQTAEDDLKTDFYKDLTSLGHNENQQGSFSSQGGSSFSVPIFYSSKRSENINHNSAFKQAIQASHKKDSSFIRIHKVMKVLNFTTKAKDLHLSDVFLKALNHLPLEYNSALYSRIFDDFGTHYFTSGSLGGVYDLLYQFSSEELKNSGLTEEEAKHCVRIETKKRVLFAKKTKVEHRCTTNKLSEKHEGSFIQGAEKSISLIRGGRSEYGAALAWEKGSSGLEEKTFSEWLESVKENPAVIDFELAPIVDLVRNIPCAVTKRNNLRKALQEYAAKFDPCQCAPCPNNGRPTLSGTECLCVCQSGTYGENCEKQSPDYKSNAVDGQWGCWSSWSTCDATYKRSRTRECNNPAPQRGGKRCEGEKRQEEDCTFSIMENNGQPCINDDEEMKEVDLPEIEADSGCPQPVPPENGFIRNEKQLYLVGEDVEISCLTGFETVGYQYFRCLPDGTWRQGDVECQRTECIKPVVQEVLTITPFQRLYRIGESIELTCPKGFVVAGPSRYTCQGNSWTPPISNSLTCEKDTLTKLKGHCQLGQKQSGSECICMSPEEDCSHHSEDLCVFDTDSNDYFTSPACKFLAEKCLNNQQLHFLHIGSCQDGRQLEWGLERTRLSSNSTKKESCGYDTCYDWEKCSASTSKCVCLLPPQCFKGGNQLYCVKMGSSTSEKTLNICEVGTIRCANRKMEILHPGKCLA

B1: recombinant thermolysin (LIC13322), PepSY-M4 fragment (domain or fragment)
chain: EFYQVPENFNSSPKLSESEALSKTLKHIGAKKYIWESVEREAALKRKKNDPNASYFPKGELLVYEHSLGKSNTKKEFRLAYKFGIASIDPPISRYVYVDSNSGEILSSKDARRYEGVQFPSPKPPIEIDIDYSRCIIDKEYCIEQGTAMTRFSGLQSITTWTAGKTNHFELKDNSRGGGIYTYSWEFVKDPLEDIQLLNIPMIDTNNSWSQSEYHDNYNHDALLDAHWGIEMTYDYFKSIHNRLSYDGDNSRIFNNVHYFNAFVANNAYWDPVTEEIYYVYCPHKNSICKGFNLPILLDPKYEDFTSLDIVSHEFGHGINGDLAGFNLDMEPGALDEGFSDIWNVGVNNYVNKVLGMQKNIWLVGDETVPGGGMRSVSNPKSTTVMSPGPNTYHGDLWDFEDNEAHTNSLVLSHWFYTLSKGKQGFNDYECTYNVSGIGIEKAERIAYVALLFLSSTSGYTSARTYAIIAAKLLYGLFSSEVKSTIDAWDAVAVPAETTSRGGQGMVRPRHYIASVKLSNVTNDSGNDCGYKDNSYLLPTVLRGVTYNMVLLSQGSASNPSKVHKWRVWIDFNQNGSFESSEMVVQDTVNSSFGGTLQKSIKIPTNALTGYAKMRVSMKAAQSGEAYQGSSESFVEGEVEDYIVSILDFSL
Take B1: the equilibrium dissociation constant (Kd) is 31.8 ± 2.2 nM in experiment [1], 17.8 ± 1.3 nM in experiment [2], 62 ± 7.1 nM in experiment [3] and 56.8 ± 5.2 nM in experiment [4].

The term Kd denotes the free concentration of one partner at which half of the binding sites on the other are occupied at equilibrium, for simple one-to-one binding.
